The subject of assay [1] is CS binding to HepG2 cells. Briefly: Enzyme treatment of HepG2 cells before CS binding. Further details: species or system human. Conditions: heparitinase from 5 U/ml, chondroitinase ABC from 1 U/ml; CSFZ(Cys) 5 μg/ml. As for the experimental part: In some experiments the HepG2 cells were treated with either heparitinase (Sigma) or chondroitinase ABC (ICN) before incubation with the CS. Heparitinase treatment was performed in 0.05 M acetate buffer, pH 6.0, containing 1 mg/ml BSA and 1 mM PMSF, 5μg/ml leupeptin and pepstatin. Cells were treated for 3 hours at 37° C. and then were washed 3× with TBS before protein was added. Chondroitinase ABC treatment was performed overnight at 37° C. in 0.1 M Tris/HCl, pH 8.0, 0.03 M sodium acetate and 0.1% BSA, and washed 3× with TBS. Enzyme-treated cells were then incubated with CS as outlined above.
Paraformaldehyde-fixed HepG2 cells were preincubated with varying amounts of enzyme, washed and then incubated with 5 μg/ml of CSFZ(Cys). […] Heparitinase and chondroitinase ABC were used at initial concentrations of 5 U/ml and 1 U/ml, respectively. […] Each point represents the mean of triplicates, and percent inhibition was calculated by comparison to cells that were not treated with enzyme.

Assay [2] deals with plasma membrane receptors for CS. Kind of assay: Enzyme digestion of human liver sections before CS27IVC immunolabeling. Type of assay: binding. Conditions: 2 hours 37°; chondroitinase ABC 2 U/ml, heparitinase 20 U/ml. The method, then:
Normal rat kidney tissue was fixed with 4% paraformaldehyde and 1% glutaraldehyde in phosphate-buffered saline (PBS) and embedded in LR White; normal human liver was fixed similarly and embedded in Lowicryl K4M (Cerami et al., Cell 70:1021-1033, 1992). Ultrathin sections were sequentially labeled with 10-50 μg/ml CS27IVC, 15 μg/ml mAb 2A10 and a 1:30 dilution of PAG15. Prior to immunolabeling, part of the sections were incubated for 120 min at 37° C. with heparitinase and chondroitinase ABC (both ICN) using concentrations of 20 U/ml and 2 U/ml, respectively. Control specimens were incubated only with the gold markers or with mAb 2A10 and PAG15.
Human liver sections were incubated with heparitinase or chondroitinase ABC for 2 hours at 37° C., prior to immunolabeling with recombinant CS. The sections were then labelled with CS27IVC followed by mAb 2A10 and PAG15. FIGS. 8a and 8b are electron micrographs of Lowicryl K4M-embedded sections. The section of FIG. 8a was treated with 2 U/ml chondroitinase ABC (ICN) for 2 hour at 37° before the immunolabeling. The typical CS label on the space of Disse (D) and on the lateral domain of the hepatocyte plasma membrane (arrows) and on lysosomes (L) was unaltered. The patchy pattern of CS-labeled hepatocyte microvilli within the space of Disse was still present in the chondroitinase-treated sections (FIG. 8a). […]

The next assay relates to rat liver sections. Kind of assay: Staining of frozen tissue sections with recombinant CS polypeptides. It is filed as binding. Conditions: revealed with MAb 2A10, fluorescence; CS27IVC 50-5 μg/ml, Falciparum-2 25 μg/ml, Falciparum-1 up to 250 μg/ml. As for the experimental part: The procedure was carried out essentially as described by Dukor P. et al., Proc. Natl. Acad. Sci. USA 67:991-997, 1970 and Imai Y. et al., J. Cell. Biol. 111:1225-1232, 1990. Rats were euthanized with CO2. Small pieces of the liver, spleen, heart, brain and lung were removed, snap frozen in liquid nitrogen, embedded in Tissue Tek O.C.T. (Miles, Inc., Naperville, Ill.), and cut into 5 μm sections. Sections were dried for 30 min., fixed for 10 min. in 4% paraformaldehyde, rinsed three times with phosphate-buffered saline (PBS), and either used immediately or stored at 4° C. in 1% BSA, 0.5% Tween, PBS (BSA/TPBS). After blocking with 100 mM glycine (pH 7.2) and with BSA/TPBS, the sections were sequentially incubated at 37° C. with recombinant proteins for 1 hr, 10 μg/ml MAb 2A10 for 45 min., and rat anti-mouse immunoglobulin conjugated to fluorescein isothiocyanate (Boehringer Mannheim, Indianapolis, Ind.) for 45 min. The slides were counterstained for 10 min. with 0.3% Evans blue, rinsed extensively in PBS, and finally observed under a fluorescence microscope. For peptide inhibition experiments, the sections were first incubated with the peptide at various concentrations in BSA/TPBS for 1 hour at 37° C., washed six times with BSA/TPBS, and then stained with 2.5 μg/ml CS recombinant protein as described above. In a few experiments, the tissues were fixed for 10 min. with methanol, acetone, or 4% paraformaldehyde containing 0.5% glutaraldehyde.
Frozen sections of various rat organs were incubated with recombinant CS27IVC polypeptide. […] The staining closely followed the sinusoidal spaces of the hepatic lobules, indicating CS binding to the hepatocyte membrane. Other areas of the liver sections and sections of other organs (spleen, lung, heart or brain) were not stained. Control sections (incubated with CS27IVC in the absence of antibody or vice versa) were not stained either.
To define the region of the CS that mediates the perisinusoidal staining various other recombinant constructs were also used in the frozen section assay.

In the next assay the test system is HepG2 cells. Kind of assay: HepG2 cell binding assay of recombinant CS polypeptides. Further details: species or system human. The following applies: indirect immunofluorescence. As for the experimental part: For indirect immunofluorescence, HepG2 cells (ATCC number HB8065, Rockville, Md.; Knowles, B. P., et al., Science 209:497-499, 1980) were grown on slides (Cel-Line Associates, Inc., Newfield, N.J.) overnight in minimum essential medium with 10% fetal calf serum (FCS-MEM; GIBCO, Grand Island, N.Y.), 1 mM L-glutamine (GIBCO), 3 mg/ml glucose (Sigma), 1×nonessential amino acids (GIBCO), 50 μg/ml penicillin, and 100 μg/ml streptomycin (GIBCO). For the enzyme-linked immunosorbent assay, 10^5 HepG2 cells were deposited in 96-well Falcon tissue culture plates (Becton Dickinson, Oxnard, Calif.) and grown for 24 hr. in FCS-MEM. The cells were fixed with 4% paraformaldehyde, washed three times with PBS, and stored at 4° C. in BSA/TPBS until use. Before the experiments, plates were blocked for 2 hr. at 37° C. with 1% gelatin, 0.05% Tween in PBS (pH 7.4) (gelatin/TPBS). […] After 15 min., fluorescence was read in a Fluoroskan II plate reader (Flow Lab Inc., McLean, Va.) with excitation filter 350 nm and emission filter 460 nm. […]
In order to quantify more accurately the effectiveness of various peptides in inhibiting the CS27IVC binding to hepatocytes additional experiments were performed using the human hepatoma cell line HepG2. This cell line is invaded readily by P.berghei sporozoites. […] The results, expressed in fluorescence units v. protein concentration are depicted in FIG. 6. […]

The test system of assay [3] is heparan sulfate proteoglycans (HSPG). Briefly: CS/proteoglycan co-immunoprecipitation. It is filed as binding, human. As for the experimental part: All extracts and supernatants were first precleared with normal rabbit serum and Staph A cells. Then 32 μg/ml of CSFZ(Cys) or 64 μg/ml of CS27IVC, Falc-2 or Falc-1 were added for 30 minutes, followed by 10.8 μg/ml mAb 2A10 for 30 minutes, and 1% Staph A cells (final concentrations). The suspensions were shaken for 1 to 5 hours at 4° C. The Staph A cells were washed 3 times with the lysis buffer A, 2 times with lysis buffer B (10 mM Tris-HCl, pH 7.2, containing 100 mM NaCl and 0.5% NP40), 1 time with 50 mM Tris-HCl, ph 7.2, and were processed in this buffer for electrophoresis under reducing and non-reducing conditions.
Extracts of cells metabolically labeled with ^35SO4 were incubated for 30 minutes at 4° C. with 32 μg/ml of recombinant CSFZ(Cys) or 64 μg/ml Falc-1, and were immunoprecipitated with mAb 2A10 and Staph A cells. […] Immunoprecipitation with Falc-1 was negative. The SDS-PAGE patterns of the total lysate of HepG2 cells, and of the molecules co-immunoprecipitated with CSFZ(Cys) resembled the corresponding liver SDS-PAGE patterns. In kidney lysates, CSFZ(Cys) selectively immunoprecipitated a band of slightly lower molecular weight than the total kidney sulfated molecules.
Sub-confluent HepG2 cells were incubated with various concentrations of trypsin for 5 minutes at 4° C. […] Independently of the trypsin concentration, about 80% of the released HSPG was co-immunoprecipitated by 32 μg/ml CSFZ(Cys) and 10.8 μg/ml mAb 2A10. Under the same conditions, Falc-1 was negative.
^35SO4-labeled trypsin-released proteoglycan (total supernatant) was precipitated by CSFZ(Cys) (32 μg/ml), Falc-2 (64 μg/ml), CS27IVC (64 μg/ml) and Falc-1 (64 μg/ml). The labeled molecules were incubated with CSFZ(Cys), CS27IVC, and Falc-2 at equivalent concentrations of Region II+, and co-immunoprecipitated with the mAb 2A10. CSFZ(Cys), lacking most of the repeat region, precipitated up to 86% of the total sulfate-labeled proteoglycans (see FIG. 14), while CS27IVC and Falc-2 precipitated only 18% and 6% of the counts, respectively. Falc-1, which lacks Region II+, was negative.
Subconfluent sulfate-labeled HepG2 cells were incubated with 20 μg/ml trypsin for 5 minutes at 4° C., and the supernatants were loaded onto an anion exchange chromatography Pharmacia mono-Q column. These were eluted with a 0 to 2 M NaCl gradient in the presence of 7 M urea. […] Protein was not detectable in the labeled peaks. One ml fractions were collected and counted.

As for chondroitinase ABC, the “effect of enzyme treatment of HepG2 cells on CS binding” value in assay [1] is on record as “no effect”. For the same molecule, the “CS27IVC label on human liver sections after enzyme treatment” value in assay [2] is given as “unaltered”.

B1: CSFZ (Cys): residues 27-123 plus NANP (a single instance) plus residues 300-411 of P. falciparum CS protein (protein)
chain: GSSSNTRVLNELNYDNAGTNLYNELEMNYYGKQENWYSLKKNSRSLGENDDGNNNNGDNGREGKDEDKRDGNNEDNEKLRKPKHKKLKQPGDGNPDPNANPMPNDPNRNVDENANANNAVKNNNNEEPSDKHIEQYLKKIKNSISTEWSPCSVTCGNGIQVRIKPGSANKPKDELDYENDIEKKICKMEKCSSVFNVVNSSIGLIMVLSFLFL
B1: in the assay with rat liver sections, the “binding (staining) to frozen liver sections” value is “bound with the same pattern as CS27IVC”. Moreover, in the assay on HepG2 cells, the “binding to HepG2 cells” value is “bound”. Also, in assay [3] (lysates of rat liver, HepG2 cells, kidney, CSFZ(Cys) 32 μg/ml, others 64 μg/ml), the “co-immunoprecipitation of 35SO4-labeled sulfated molecules” value is listed as “co-immunoprecipitated sulfated molecules”. Moreover, the “counts in the mono-Q peak co-immunoprecipitated” value in assay [3] (peak at 0.6 to 0.8 M NaCl) is reported as “about 80%”. The “released HSPG co-immunoprecipitated” value in assay [3] (trypsin-released from HepG2 cells, CSFZ(Cys) 32 μg/ml, mAb 2A10 10.8 μg/ml) is listed as “about 80%”. In addition, the “total sulfate-labeled proteoglycans precipitated” value in assay [3] (trypsin-released proteoglycan, equivalent concentrations of Region II+) is listed as “up to 86%”.

The values above are taken from US20030119733A1, “Compositions and methods for inhibiting hepatocyte invasion by malarial sporozoites” (New York University, priority 1992, published 2003).
